Results as given in US20080234193A1 (published 2008).
Where “and” joins values, the source holds several entries; their conditions need not be identical. Equal entries are not always repeated.

Columns and labels:
[1] = biological target: PEG-rFVIII Lys 40K br long (UniProt P00451)
[2] = biological target: PEG-rFVIII Lys 20K br long (UniProt P00451)
[3] = biological target: PEG-rFVIII Lys 60K br short (UniProt P00451)
[4] = biological target: PEG-rFVIII Lys 40K br short (UniProt P00451)
[5] = biological target: PEG-rFVIII Lys 20K br short (UniProt P00451)
Chain of PEG-rFVIII Lys 20K br short (P00451 whole entry, looked up): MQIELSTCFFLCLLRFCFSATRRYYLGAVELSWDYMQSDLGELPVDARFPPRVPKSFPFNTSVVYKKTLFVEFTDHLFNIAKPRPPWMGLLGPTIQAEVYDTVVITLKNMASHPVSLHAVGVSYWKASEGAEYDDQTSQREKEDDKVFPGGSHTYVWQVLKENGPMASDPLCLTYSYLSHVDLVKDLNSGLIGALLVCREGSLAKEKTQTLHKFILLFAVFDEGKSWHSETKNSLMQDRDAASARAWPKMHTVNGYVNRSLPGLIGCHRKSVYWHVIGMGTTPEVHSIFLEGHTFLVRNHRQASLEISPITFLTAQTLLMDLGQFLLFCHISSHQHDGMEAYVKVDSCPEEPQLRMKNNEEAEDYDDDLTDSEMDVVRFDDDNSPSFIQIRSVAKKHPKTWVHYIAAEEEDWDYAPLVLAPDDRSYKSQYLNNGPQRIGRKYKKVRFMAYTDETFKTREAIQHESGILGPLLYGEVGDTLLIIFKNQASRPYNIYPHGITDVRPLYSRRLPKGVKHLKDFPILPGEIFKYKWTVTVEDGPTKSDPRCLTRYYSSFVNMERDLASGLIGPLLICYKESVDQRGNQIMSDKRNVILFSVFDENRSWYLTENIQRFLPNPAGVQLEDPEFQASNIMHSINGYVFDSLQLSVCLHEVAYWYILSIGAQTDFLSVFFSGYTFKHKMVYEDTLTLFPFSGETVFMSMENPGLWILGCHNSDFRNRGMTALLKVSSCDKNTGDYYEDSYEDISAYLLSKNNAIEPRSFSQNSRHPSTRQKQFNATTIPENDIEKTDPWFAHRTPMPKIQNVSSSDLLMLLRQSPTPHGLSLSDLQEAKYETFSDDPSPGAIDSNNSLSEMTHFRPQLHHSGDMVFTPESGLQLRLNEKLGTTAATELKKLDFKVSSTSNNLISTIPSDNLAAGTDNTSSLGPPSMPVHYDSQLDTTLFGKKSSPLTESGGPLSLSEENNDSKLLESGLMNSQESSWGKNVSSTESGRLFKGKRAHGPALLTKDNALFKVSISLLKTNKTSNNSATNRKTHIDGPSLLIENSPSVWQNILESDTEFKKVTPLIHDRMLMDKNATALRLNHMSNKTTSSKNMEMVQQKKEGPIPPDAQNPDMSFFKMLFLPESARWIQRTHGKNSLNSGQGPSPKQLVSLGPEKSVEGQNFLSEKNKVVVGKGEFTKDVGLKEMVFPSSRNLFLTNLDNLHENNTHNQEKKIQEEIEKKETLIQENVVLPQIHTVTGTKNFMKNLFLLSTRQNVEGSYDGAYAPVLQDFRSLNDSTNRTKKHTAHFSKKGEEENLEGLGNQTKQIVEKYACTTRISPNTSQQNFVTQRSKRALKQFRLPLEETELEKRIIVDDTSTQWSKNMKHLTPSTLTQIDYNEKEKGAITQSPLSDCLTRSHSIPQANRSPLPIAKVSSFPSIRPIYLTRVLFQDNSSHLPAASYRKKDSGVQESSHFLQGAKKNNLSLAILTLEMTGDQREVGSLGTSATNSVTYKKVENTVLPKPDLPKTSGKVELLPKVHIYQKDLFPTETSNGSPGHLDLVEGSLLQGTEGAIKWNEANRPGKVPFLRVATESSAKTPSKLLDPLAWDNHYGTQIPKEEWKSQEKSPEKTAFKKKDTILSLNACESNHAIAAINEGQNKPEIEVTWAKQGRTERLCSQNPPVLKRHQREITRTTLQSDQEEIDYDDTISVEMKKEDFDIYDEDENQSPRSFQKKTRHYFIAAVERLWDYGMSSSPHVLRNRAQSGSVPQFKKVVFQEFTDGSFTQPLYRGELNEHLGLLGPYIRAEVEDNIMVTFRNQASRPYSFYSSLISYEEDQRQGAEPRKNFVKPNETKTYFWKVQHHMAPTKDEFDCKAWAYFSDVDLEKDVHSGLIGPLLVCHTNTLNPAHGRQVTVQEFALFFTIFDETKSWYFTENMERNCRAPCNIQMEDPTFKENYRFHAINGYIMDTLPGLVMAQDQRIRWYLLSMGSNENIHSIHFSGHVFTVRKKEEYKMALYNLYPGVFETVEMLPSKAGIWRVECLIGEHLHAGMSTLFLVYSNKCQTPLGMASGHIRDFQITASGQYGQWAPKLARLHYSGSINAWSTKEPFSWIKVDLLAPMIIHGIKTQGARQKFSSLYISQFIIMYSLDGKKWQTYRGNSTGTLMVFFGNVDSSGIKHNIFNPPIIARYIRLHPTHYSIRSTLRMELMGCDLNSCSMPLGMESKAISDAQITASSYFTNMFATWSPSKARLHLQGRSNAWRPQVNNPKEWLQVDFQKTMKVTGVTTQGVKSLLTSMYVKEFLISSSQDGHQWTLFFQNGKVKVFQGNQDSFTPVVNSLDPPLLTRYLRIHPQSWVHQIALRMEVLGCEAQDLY

[6] = biological target: native rFVIII MOQ HEPES 01-E (Advate rAHF-PFM bulk drug substance) (UniProt P00451)
Chain of native rFVIII MOQ HEPES 01-E (Advate rAHF-PFM bulk drug substance) (P00451 whole entry, looked up): as above

[7] = biological target: PEG-rFVIII Lys 60K br long (UniProt P00451)
Chain of PEG-rFVIII Lys 60K br long (P00451 whole entry, looked up): as above

[8] = biological target: native rVWF 133P1 (human) (UniProt P04275); experiment: SPR (Biacore 3000): native rVWF 133P1 immobilized on CM5 chip, FVIII sample in flow, 1:1 Langmuir model
[9] = biological target: activated factor IX (FIXa); experiment: cell-based or functional assay
[10] = biological target: native rFVIII MOQ HEPES 01-E (Advate rAHF-PFM bulk drug substance) (UniProt P00451); experiment: ECA after in vitro incubation in Hepes buffer pH ~7.5 at ambient temperature, day 5
[11] = biological target: native rFVIII MOQ HEPES 01-E (Advate rAHF-PFM bulk drug substance) (UniProt P00451); experiment: ECA after in vitro incubation in Hepes buffer pH ~7.5 at ambient temperature, day 2
[12] = biological target: native rFVIII MOQ HEPES 01-E (Advate rAHF-PFM bulk drug substance) (UniProt P00451); experiment: ELISA chromogenic assay (ECA): VWF-rFVIII complex captured on anti-VWF antibody, bound FVIII by chromogenic assay; percent of VWF:Ag
[13] = biological target: native rFVIII MOQ HEPES 01-E (Advate rAHF-PFM bulk drug substance) (UniProt P00451); experiment: ELISA chromogenic assay (ECA); mean of 133P1-1 to 133P1-3
[14] = biological target: native rFVIII MOQ HEPES 01-E (Advate rAHF-PFM bulk drug substance) (UniProt P00451); experiment: ECA, value related to the rVWF protein
[15] = biological target: native rFVIII MOQ HEPES 01-E (Advate rAHF-PFM bulk drug substance) (UniProt P00451); experiment: SPR (Biacore 3000): rVWF sample immobilized on CM5 chip, rFVIII in flow, 1:1 Langmuir model
[16] = biological target: native rFVIII MOQ HEPES 01-E (Advate rAHF-PFM bulk drug substance) (UniProt P00451); experiment: SPR (Biacore 3000): rVWF sample immobilized on CM5 chip, rFVIII in flow, 1:1 Langmuir model; mean of 133P1-1 and 133P1-2
[17] = biological target: native rFVIII MOQ HEPES 01-E (Advate rAHF-PFM bulk drug substance) (UniProt P00451); experiment: SPR competition (Biacore): VWF-rFVIII complex (5 IU/ml rFVIII) in flow over immobilized unmodified rVWF (competitor)
[18] = biological target: native rFVIII MOQ HEPES 01-E (Advate rAHF-PFM bulk drug substance) (UniProt P00451); experiment: ECA after in vitro incubation in Hepes buffer pH ~7.5 at ambient temperature, day 0
[19] = biological target: native rFVIII MOQ HEPES 01-E (Advate rAHF-PFM bulk drug substance) (UniProt P00451); experiment: ELISA chromogenic assay (ECA): VWF-rFVIII complex captured on anti-VWF antibody, bound FVIII by chromogenic assay
[20] = biological target: native rFVIII MOQ HEPES 01-E (Advate rAHF-PFM bulk drug substance) (UniProt P00451); experiment: as above; remark: listed apart in the source
[21] = biological target: native rFVIII MOQ HEPES 01-E (Advate rAHF-PFM bulk drug substance) (UniProt P00451); experiment: ECA after in vitro incubation in Hepes buffer pH ~7.5 at ambient temperature, day 8
[22] = biological target: native rFVIII MOQ HEPES 01-E (Advate rAHF-PFM bulk drug substance) (UniProt P00451); experiment: SPR (Biacore 3000): rVWF sample immobilized on CM5 chip, rFVIII in flow, 1:1 Langmuir model; remark: listed apart in the source
[23] = biological target: native rFVIII MOQ HEPES 01-E (Advate rAHF-PFM bulk drug substance) (UniProt P00451); experiment: ECA, value as percent of VWF:Ag
[24] = biological target: FVIII control (mock preparation, not PEGylated) (UniProt P00451)
Chain of FVIII control (mock preparation, not PEGylated) (P00451 whole entry, looked up): as above

[25] = biological target: PEG-rVWF Lys 20K br short low, P04275
[26] = biological target: PEG-rVWF Lys 40K br long low, P04275
[27] = biological target: PEG-rVWF Lys 20K br long low, P04275
[28] = biological target: PEG-rVWF Lys 40K br short low, P04275
[29] = biological target: native rVWF 133P1, P04275

Chain of PEG-rFVIII Lys 40K br long (P00451 whole entry, looked up): as above
Chain of PEG-rFVIII Lys 60K br short (P00451 whole entry, looked up): as above
Chain of PEG-rFVIII Lys 40K br short (P00451 whole entry, looked up): as above
Chain of PEG-rFVIII Lys 20K br long (P00451 whole entry, looked up): as above

For activated protein C (APC), the Relative k' of APC-mediated inactivation (non-activated FVIII) relative to native rFVIII [1] was 0.35, the Relative k' of APC-mediated inactivation of thrombin-activated FVIII relative to native rFVIIIa [1] was 0.54 and the Relative k' of APC-mediated inactivation (non-activated FVIII) relative to native rFVIII [2] was 0.56. For the same molecule, the Relative k' of APC-mediated inactivation of thrombin-activated FVIII relative to native rFVIIIa [2] was 0.5, the Relative k' of APC-mediated inactivation (non-activated FVIII) relative to native rFVIII [3] was 0.52 and the Relative k' of APC-mediated inactivation of thrombin-activated FVIII relative to native rFVIIIa [3] was 0.54. It also gave a Relative k' of APC-mediated inactivation (non-activated FVIII) relative to native rFVIII [4] of 0.44, a Relative k' of APC-mediated inactivation of thrombin-activated FVIII relative to native rFVIIIa [4] of 0.55 and a Relative k' of APC-mediated inactivation (non-activated FVIII) relative to native rFVIII [5] of 0.46. For the same molecule, the Relative k' of APC-mediated inactivation of thrombin-activated FVIII relative to native rFVIIIa [5] was 0.5, the “first order rate of inactivation k', non-activated rFVIII, 0.05 U/ml APC” value [6] was “a first order rate inactivation was observed, with a k' of 0.220*min^-1” and the Relative k' of APC-mediated inactivation (non-activated FVIII) relative to native rFVIII [7] was 0.38. It also gave a Relative k' of APC-mediated inactivation of thrombin-activated FVIII relative to native rFVIIIa [7] of 0.64.

“native rFVIII MOQ HEPES 01-E (Advate rAHF-PFM bulk drug substance) (from UniProt P00451 20-2351)” was tested, and the Kd [8] was 1.5 nM, the lag phase (min), FIXa-cofactor activity after thrombin activation [9] was 1.15 min and the lag phase (min), FIXa-cofactor activity without thrombin activation [9] was 2.4 min. The maximum FXa (nM), FIXa-cofactor activity after thrombin activation [9] was 25.1 nM, the maximum FXa (nM), FIXa-cofactor activity without thrombin activation [9] was 30.1 nM and the maximum rate (nM FXa/min), FIXa-cofactor activity after thrombin activation [9] was 4.24 nM FXa/min. The maximum rate (nM FXa/min), FIXa-cofactor activity without thrombin activation [9] was 6.7 nM FXa/min, the t1/2 of maximum (min), FIXa-cofactor activity after thrombin activation [9] was 4.24 min and the t1/2 of maximum (min), FIXa-cofactor activity without thrombin activation [9] was 4.6 min.

“native rVWF 133P1 (from UniProt P04275 764-2813)” was tested, and the VWF:FVIIIB specific activity (U/mg protein) [10] was 93 U/mg protein, the VWF:FVIIIB specific activity (U/mg protein) [11] was 66 U/mg protein and the VWF:FVIIIB capacity (%) [12] was 84%. For the same molecule, the VWF:FVIIIB (U/ml) [13] was 41.2 U/ml, the VWF:FVIIIB (U/mg) [14] was 134 U/mg and the Kd [15] was 0.29 nM and 0.55 nM and 0.48 nM. It also gave a Kd [16] of 0.39 nM, a VWF to FVIII ratio to keep all FVIII in a complex [17] of 1 µg/IU and a VWF:FVIIIB specific activity (U/mg protein) [18] of 81 U/mg protein. The VWF:FVIIIB (U/ml) [19] was 47.9 U/ml and 37.9 U/ml and 37.8 U/ml, the VWF:FVIIIB (U/ml) [20] was 46 U/ml and the VWF:FVIIIB specific activity (U/mg protein) [21] was 84 U/mg protein. For the same molecule, the Kd [22] was 0.549 nM.

Work on “rVWF control (mock preparation, not PEGylated) (from UniProt P04275 764-2813)” yielded a VWF:FVIIIB (U/mg) [14] of 95 U/mg, a VWF:FVIIIB capacity (%) [23] of 84% and a VWF:FVIIIB (U/ml) [19] of 15.5 U/ml.

Molecule thrombin has a Relative k' (first order inactivation rate relative to native rFVIII), 0.5 nM thrombin, FIXa-cofactor assay [1] of 0.44, a Relative k' (first order inactivation rate relative to native rFVIII), 0.5 nM thrombin, FIXa-cofactor assay [2] of 0.39 and a Relative k' (first order inactivation rate relative to native rFVIII), 0.5 nM thrombin, FIXa-cofactor assay [3] of 0.46. The Relative k' (first order inactivation rate relative to native rFVIII), 0.5 nM thrombin, FIXa-cofactor assay [4] was 0.48, the Relative k' (first order inactivation rate relative to native rFVIII), 0.5 nM thrombin, FIXa-cofactor assay [5] was 0.35 and the Relative k' (first order inactivation rate relative to native rFVIII), 0.5 nM thrombin, FIXa-cofactor assay [24] was 0.72. For the same molecule, the Relative k' (first order inactivation rate relative to native rFVIII), 0.5 nM thrombin, FIXa-cofactor assay [7] was 0.51.

B1: ADAMTS13 (VWF cleaving protease) (protein)
chain: AAGGILHLELLVAVGPDVFQAHQEDTERYVLTNLNIGAELLRDPSLGAQFRVHLVKMVILTEPEGAPNITANLTSSLLSVCGWSQTINPEDDTDPGHADLVLYITRFDLELPDGNRQVRGVTQLGGACSPTWSCLITEDTGFDLGVTIAHEIGHSFGLEHDGAPGSGCGPSGHVMASDGAAPRAGLAWSPCSRRQLLSLLSAGRARCVWDPPRPQPGSAGHPPDAQPGLYYSANEQCRVAFGPKAVACTFAREHLDMCQALSCHTDPLDQSSCSRLLVPLLDGTECGVEKWCSKGRCRSLVELTPIAAVHGRWSSWGPRSPCSRSCGGGVVTRRRQCNNPRPAFGGRACVGADLQAEMCNTQACEKTQLEFMSQQCARTDGQPLRSSPGGASFYHWGAAVPHSQGDALCRHMCRAIGESFIMKRGDSFLDGTRCMPSGPREDGTLSLCVSGSCRTFGCDGRMDSQQVWDRCQVCGGDNSTCSPRKGSFTAGRAREYVTFLTVTPNLTSVYIANHRPLFTHLAVRIGGRYVVAGKMSISPNTTYPSLLEDGRVEYRVALTEDRLPRLEEIRIWGPLQEDADIQVYRRYGEEYGNLTRPDITFTYFQPKPRQAWVWAAVRGPCSVSCGAGLRWVNYSCLDQARKELVETVQCQGSQQPPAWPEACVLEPCPPYWAVGDFGPCSASCGGGLRERPVRCVEAQGSLLKTLPPARCRAGAQQPAVALETCNPQPCPARWEVSEPSSCTSAGGAGLALENETCVPGADGLEAPVTEGPGSVDEKLPAPEPCVGMSCPPGWGHLDATSAGEKAPSPWGSIRTGAQAAHVWTPAAGSCSVSCGRGLMELRFLCMDSALRVPVQEELCGLASKPGSRREVCQAVPCPARWQYKLAACSVSCGRGVVRRILYCARAHGEDDGEEILLDTQCQGLPRPEPQEACSLEPCPPRWKVMSLGPCSASCGLGTARRSVACVQLDQGQDVEVDEAACAALVRPEASVPCLIADCTYRWHVGTWMECSVSCGDGIQRRRDTCLGPQAQAPVPADFCQHLPKPVTVRGCWAGPCVGQGTPSLVPHEEAAAPGRTTATPAGASLEWSQARGLLFSPAPQPRRLLPGPQENSVQSSACGRQHLEPTGTIDMRGPGQADCAVAIGRPLGEVVTLRVLESSLNCSAGDMLLLWGRLTWRKMCRKLLDMTFSSKTNTLVVRQRCGRPGGGVLLRYGSQLAPETFYRECDMQLFGPWGEIVSPSLSPATSNAGGCRLFINVAPHARIAIHALATNMGAGTEGANASYILIRDTHSLRTTAFHGQQVLYWESESSQAEMEFSEGFLKAQASLRGQYWTLQSWVPEMQDPQSWKGKEGT
For B1, the “loss of VWF:CB activity after 4 h incubation with ADAMTS13 under denaturing conditions” value (from here on “loss of VWF:CB activity”) [25] was “The PEGylated conjugates showed a slightly higher susceptibility to ADAMTS13 than their parent native rVWF”, the “loss of VWF:CB activity” value [26] was “The PEGylated conjugates showed a slightly higher susceptibility to ADAMTS13 than their parent native rVWF” and the “loss of VWF:CB activity” value [27] was “The PEGylated conjugates showed a slightly higher susceptibility to ADAMTS13 than their parent native rVWF”. For the same molecule, the “loss of VWF:CB activity” value [28] was “The PEGylated conjugates showed a slightly higher susceptibility to ADAMTS13 than their parent native rVWF” and the “disappearance of higher molecular weight multimers after incubation with ADAMTS13” value [29] was “All preparations showed similar sensitivity to ADAMTS13”.
